Target: His-tagged recombinant CHIKV nsP2-NT (1-454) (Chikungunya virus strain S 27)

His-tagged recombinant CHIKV nsP1-WT (1-535) (from UniProt Q8JUX6 1-535) (enzyme)
ATPase activity of nsP2-NT (0.2 μg) with nsP1-WT (0.6 μg) against nsP2-NT alone, TLC assay with [γ-P32] ATP, release of free Pi: 1.5 fold | ATPase activity of nsP2-NT (1 μg) with nsP1-WT (1 μg), colorimetric malachite green assay, Pi release (approximately 86 μM for nsP2-NT alone): 174 µM
